Key:
[1] = tested on: MM cell lines (MM1s, OPM1, RPMI); assay: Cell viability: sensitivity to bortezomib after culture with plasma and ctDNA; format: cell-based, human
Procedure: BR: Bortezomib resistant, BS: Bortezomib sensitive. Error bars indicate the standard deviation of triplicate experiments.
(§1) Cell viability: Cell viability assays were performed in 96 well, black, clear-bottom microplates. For MM cell line studies, 3×10^4 cells were cultured for 24 hours with media containing 10% human plasma of a bortezomib-resistant or-sensitive patient or a control non-cancer patient. Cells were then cultured for 24 hours with titrating concentrations of bortezomib (doses: 0, 5, 10, 15, 50 nM; Sigma). For PC cell lines viability studies, 1×10^4 cells were incubated for 24 hours with media containing plasma of a gemcitabine-resistant patient or non-cancer patient. Subsequently, titrating concentrations of gemcitabine (doses: 0, 10, 25, 50, 100, 200 μM; Sigma-Aldrich, MO) were added to the culture media and cells were then incubated for 96 hours. CellTiter-Blue Cell Viability Assay was used to evaluate cell viability according to the manufacturer's instructions (Promega). Cell viability was measured by a fluorescent protocol in an microplate reader. Experiments were performed in triplicate of 3 independent studies.

[2] = tested on: ctDNA chromatid integration in MM1s, MIA and HCT116 cell lines; assay: Effect of reverse transcriptase or integrase inhibitors on ctDNA chromatid integration; format: cell-based, human; settings: HCT116 treated prior to adding ctDNA, compared to no treatment control
Procedure: To evaluate functionally the role of retrotransposons in horizontal gene transfer of ctDNA, experiments were conducted to test the impact of inhibiting reverse transcriptases or integrases on ctDNA integration. Multiple myeloma (MM1s), pancreatic cancer (MIA), and colon cancer (HCT116) cell lines were treated with the reverse-transcriptase inhibitors zidovudine or didanosine, and with the integrase inhibitor raltegravir prior to adding the ctDNA to culture media.

[3] = tested on: pancreatic cancer cell lines (MIA Paca-2 [MIA] and PANC1); assay: Cell viability: sensitivity to gemcitabine after culture with patient plasma; format: cell-based, human
Procedure: For the corresponding DNase I-treated samples, plasma was treated with DNase I for 10 minutes. GR: Gemcitabine resistant.
Gemcitabine (GEM)-sensitive pancreatic cancer cell lines (MIA Paca-2 [MIA] and PANC1) were cultured for 24 h with DNase-treated or non-treated plasma from (GEM)-resistant (GR) patients or control plasma.
as §1

[4] = tested on: MM1s (multiple myeloma) cell genome; assay: ctDNA coculture with MM1s cells, whole genome sequencing: genomic insertion sites, transposons at insertion points and SNVs (multiple myeloma); format: cell-based, human
Procedure: The integration of ctDNAs into the host cell genome was evaluated. ctDNA was extracted from patient plasma, cultured for 24 hours with cells of a matching cancer cell type or non-matching cancer cell type, and whole genome sequencing was performed. The cell lines used were MM1s (multiple myeloma, MM) and MIA (pancreatic cancer, PC).
Single nucleotide variants (SNVs) unique to the ctDNA that were found in the host cell genome under matching coculture conditions were identified.
The sequence data was used to reconstruct genomic contigs for each experimental condition by de novo assembly. […] Coculture contigs carrying a ctDNA insertion were identified using NucDiff analysis. BLAST alignment analysis further validated the gain of ctDNA fragments in coculture conditions and identified the transition points of ctDNA insertion (FIGS. 3A-3C). […] The remaining 20% inserted into a chromosomal location distinct from their site of origin.
Experiments were designed to identify the presence of transposons in ctDNA fragments. To map ctDNA genomic junctions more precisely, a PACBIO probe was ligated to multiple myeloma and pancreatic cancer ctDNA samples to label their 5′ and 3′ ends. Whole-genome sequencing of DNA from cells with ctDNA genomic integration was done using the Illumina platform. De novo assembly was performed on the sequencing output. ctDNA contigs containing PACBIO adaptor were then matched to those contigs containing inserted ctDNA sequences identified in the coculture experiments. Transposable element on ctDNA sequences at the insertion points (<100 nucleotides from transition point between cell and ctDNA) were detected and classified using RepeatMaster.
A search was conducted for transposons that preferentially target cells of matching tumor types. The lists of transposons identified at the ctDNA insertion point in matching and mismatched coculture conditions were compared (e.g., MM ctDNA with MM cells or PC cells). Transposons were selected that were uniquely or preferentially inserted in the matching conditions.
In multiple myeloma, AluSp, MER11, MER11C, AluJb, and L2a, among other subfamilies of retrotransposons were identified at the MM ctDNA insertion sites (FIG. 5B and TABLE 7).
Whole-genome sequencing and Whole exon sequencing: ctDNA was extracted from 10 MM and 10 PC patients. DNA from CD138 (+) cells and from cell lines used in in vitro experiments (MM1s and MIA) was extracted using Blood & Cell Culture DNA Mini Kit (Quiagen, MD). DNA from […] paraffin embedded pancreatic tumors was obtained using QIAamp DNA FFPE Tissue Kit Print (Qiagen, MD).
After extraction, ctDNA was ligated to the PACBIO adaptor ([…]) using the ABM DNA Library Prep Kit for Illumina Sequencing (Applied Biological Materials Inc. Canada). PACBio-labeled ctDNA and regular ctDNA were subjected to standard methods for library preparation and sequencing using Illumina and Agilent protocols, respectively. Applied Biological Materials Inc. prepared the libraries and performed whole-exon and -genome sequencing. The average target coverage was 50×.
Identification of transposable elements and its nucleotide variants: To determine the locations of transposable-like regions in contigs, sequences were analyzed and transposable elements (TEs) were identified and classified using RepeatMasker version 4.1.0 and the Dfam database (release 3.1) of repetitive DNA families was used as a reference for identifying repeats in ctDNA contig sequences that were part of qualifying structural events. For each repeat sequence identified by RepeatMasker, the overall frequency of the specific repeat (e.g., for AluSp or L1) and their parent class (e.g., SINE) was computed.
Once the TE elements were identified, hit repeats/TE sequences, unique contigs for all samples, and insertion sequence were aligned with MAFFT software version. […]

[5] = tested on: multiple myeloma cell line; assay: Uptake of fluorescent MM2 fragments, fluorescent microscopy; format: cell-based; settings: Fluorescein 12 dCTP labelled PCR products
Procedure: FIG. 19 provides fluorescence microcopy images showing uptake of fluorescently labelled synthetic DNA derived from a multiple myeloma ctDNA (MM2 (1-290), MM2 (89-290), MM2 (177-290), and MM2 (1-201), and MM2 (1-113)), or a control sequence.
Fluorescein 12 dCTP from Perkin Elmer was used to label the PCR products, which were purified after the reaction.
In an initial study, fragments were generated as follows:
The fluorescent DNA sequences were incubated with multiple a myeloma cell line and uptake was evaluated by fluorescent microscopy.
The study was repeated with 5′FAM-labelled primers, with similar results.

[6] = tested on: MM/B cell lines (MM1S and RPMI); assay: Uptake of MM2 fragments in different cell types; format: cell-based; settings: DAPI and Texas red-phalloidin counterstain
Text: (§2) FIG. 20 provides fluorescence microcopy images evaluating uptake of fluorescently labelled synthetic DNA derived from a multiple myeloma ctDNA (MM2 (1-290), MM2 (89-290), MM2 (177-290), and MM2 (1-201), and MM2 (1-113)) by multiple myeloma/B cell lines (MM1S and RPMI) and cell lines of other cell types (HFF—fibroblast, DU145—prostate cancer, MCF10A breast).
(§3) A follow-up experiment evaluated uptake of the fragments in different cell types, with counterstaining to identify nuclei (DAPI) and cytoplasm (Texas red-phalloidin).

[7] = tested on: HFF (fibroblast), DU145 (prostate cancer), and MCF10A (breast); assay: Uptake of MM2 fragments in different cell types; format: cell-based
Text: as §2, §3

CC(C)C[C@H](NC(=O)[C@H](Cc1ccccc1)NC(=O)c1cnccn1)B(O)O [bortezomib]
sensitivity to bortezomib ([1]; MM1s and OPM1, ctDNA of BR patient added to non-cancer patient plasma): decreased the sensitivity | sensitivity to bortezomib ([1]; RPMI cells, ctDNA of BS patient added to control plasma): increased sensitivity | resistance to bortezomib ([1]; ctDNA of a BR patient added to plasma of a BR patient): further increased

O=c1[nH]cnc2c1ncn2[C@H]1CC[C@@H](CO)O1 [didanosine]
ctDNA chromatid integration [2]: significantly reduced

Nc1ccn([C@@H]2O[C@H](CO)[C@@H](O)C2(F)F)c(=O)n1 [gemcitabine]
response to gemcitabine ([3]; cells cultured 24 h with non-DNase-treated GR patient plasma, vs control serum): became resistant | response to gemcitabine ([3]; cells cultured with DNase-treated GR plasma): restored the inherent sensitivity | response to gemcitabine ([3]; control serum treated with DNase): increased resistance

Cc1nnc(C(=O)NC(C)(C)c2nc(C(=O)NCc3ccc(F)cc3)c(O)c(=O)n2C)o1 [raltegravir]
ctDNA chromatid integration [2]: significantly reduced

Cc1cn([C@H]2C[C@H](N=[N+]=[N-])[C@@H](CO)O2)c(=O)[nH]c1=O [zidovudine]
ctDNA chromatid integration [2]: significantly reduced

B1: THE1C (nucleic acid, listed as Homo sapiens)
DNA: TGATATGGTTTGGCTGTGTCCCCACCTAAATCTCATCTTGAATTGTAGTTCCCATAATCCCCATGTGTCATGGGAGGGACCCAGTGGGAGGTAATTTAATCCTGGGGGCAGTTACCCTCCTGCTATGTGTGTGTGTGTGTGTGTGTTCTCACGAGATCTGATGGTTTTATAAGGGGCTTTTCCCCCTTCGCTCGGCACTTCTCCTTCCTGCCGCCATGTGAAGAAGGACGTGTTTGCTTCCCCTTCCGCCATGATTGTAAGTTTCCTGAGGCCTCCCCAGCCATGCNGAACTGTGAGTCAATTAAACCTCTTTCCTTTATAAATTACCCAGTCTCGGGTGTGTCTTTATTAGCAGCGTGAGAACGGACTAATACA
modifications: misc_difference 287 a, c, t, g, unknown or other
blast orientation ([4]; TABLE 7, multiple myeloma co-culture, BLAST alignment orientation): Plus/Minus | blast chr ([4]; TABLE 7, multiple myeloma co-culture, chromosome with the longest result for BLAST analysis of the full contig): chr14 | Transposon orientation ([4]; TABLE 7, multiple myeloma co-culture, compared with the human reference genome): direct | Distance from insertion ([4]; TABLE 7, multiple myeloma co-culture, distance between insertion and the transposon (0 if they overlap)): 0 | Location relative to insertion ([4]; TABLE 7, multiple myeloma co-culture, location of the transposon relative to the insertion on the contig): intersect

B2: MM2 (1-113): fluorescently labelled fragment of MM2 (1-290) (nucleic acid, listed as Homo sapiens)
DNA: ACCCGGCCTTGGACACGCCATTTTCAACTCCGTGGTGCGTTTTTTTTTTTTTTTTTTTTTTTTTGTAATGGAGTTTCGCTCTTGTTGCCCAGGATGGAGTGCAAGGGATCTTG
modifications: DNA, all phosphodiester, methylation of C not given here; fluorescein label via fluorescein-12-dCTP or 5' FAM primer
uptake [5]: not | uptake [6]: not

B3: MM2 (177-290): fluorescently labelled fragment of MM2 (1-290) (nucleic acid, listed as Homo sapiens)
DNA: GGGATTATAAGCACCCACCACCACGCCCAGCTAATTTTGTATTTTTTAGAAGAGATGGAGTTTCTCCAGTTGGCCAGGATGGTCTGTATATCCTGACCTCATGATCTGCCCACC
modifications: DNA, all phosphodiester, methylation of C not given here; fluorescein label via fluorescein-12-dCTP or 5' FAM primer
uptake [5]: observed | uptake [6]: observed | uptake [7]: not

B4: 3 (nucleic acid, listed as Homo sapiens)
chain: TCTCACCACCTCTACTACTGCCTATCTGCATCTGGGTGCACGTCCTCTGCTATTCCTTCTGTTTCTACAGAAGCTGTCCATATTTCTAAGGCTAATCCCTTGCATTTTGGTACCAGACTTCCCTGACCTACACAAAGATGATCACCCCCCAAAATTGCCTTTCTTTCCTGCATCAAGTTTTTTCTTCTCTACTGTATTATTCCTATTGCACATTAGCCCAAAAAATGCCGTTGTTTTTCCATCGGTAAAAAAAAAAAATAGAGAGAAAAAGAAAAATAATCCATTGCCGCCAATCTATCTTCTAGTCATTTTTCCATTTCTCTGTTCTCCATTCTGCATAAACCATTTTTACTTGAATTGTTTATACTTGCTGTTTACAACAAACCTCCTCTTTCTCTCCACCCCAATCAGATTTTGGTCCACATTCCTCATGCAGTGGTCAGTCCTTGGTCCTCAACCTAGTCTAGCCTGCTTGCTGGTGGGTGTGCTCTCGGGGCATTTGCTTGTGTTTGCACGACAGCTCAGTCCCTCACTTCTCTCAAGTCTTTGCTAATAACACTCTTGCATCCAAGTCTTCCCTGACCTGCTACTTAAAAACAACTCACCCCCACCCCTAGAAATCCCTATCCTCTTCCCTACGCTTTATTTTTCTCCATAATACTTATCACCATGTAGCTGAACATGTATTTTACTCACTTTTTTTTATATTGTCCATCTTCCCTCAGTGAATTGAAAGCTCCATGAGGGCAGGAGGTTTTGTTTATTGTGTTTACTGCTTTATCCCTAGCACCCAGCACAGCATATGTGATATAGTAGACACTCAATACAAATCTGATGTGTGTGTGTCT
Gene ([4]; gene at identified genomic insertion site, multiple myeloma): AKAP6 | Location ([4]; identified genomic insertion site, chromosome, multiple myeloma): Chr4 | No. SNP ([4]; number of single nucleotide variants (SNVs or SNPs) identified, multiple myeloma): Many

Reference: patent US20250241939A1, “NUCLEIC ACID-BASED DELIVERY SYSTEMS AND USES THEREOF” (Kodikaz Therapeutic Solutions, Inc., priority 2022, published 2025)
